Data from the supplement of paper PMC10567573.
± gives the standard deviation.

Experiment: protein stability index of a GFP-peptide fusion (GPS, HEK-293T) (PSI 1-6); higher = more stable
[1] = treatment: DMSO, c terminus: a fixed tail appended
[2] = treatment: MLN4924 1 uM, 8 h, c terminus: a fixed tail appended
[3] = treatment: DMSO, c terminus: native
[4] = treatment: MLN4924 1 uM, 8 h, c terminus: native
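Also: 24-mer peptide tiles fused after GFP, lentivirally expressed, FACS-sorted into six equal bins by GFP/DsRed ratio, decoded by Illumina sequencing, PSI is the read-weighted mean bin number.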

Sequence	protein stability index [1]	protein stability index [2]	protein stability index [3]	protein stability index [4]
ELERARELKEKEATLCLEFLLQND [ANKRD44]	3.94 ± 0.2	4.13 ± 0.35		
ILNTTGTYSGKAADVWSLGVMLYT [TRIB1]	2.7 ± 0.76	2.25 ± 0.6		
CGTPEYLAPEVIQSKGHGRAVDWW [PRKX]	2.72 ± 0.54	2.45 ± 0.15		
GGMNHSAFPQTPFKTGNSTATCTT [KCNA3]	4.27 ± 0.24	4.4 ± 0.4		
NEHKSCEEKSVKNTSIRVADFGSA [CLK3]	4.89 ± 0.16	5.03 ± 0.14		
KFCMNGAALCALGKDCFLELAPDF [ETS1]	2.18 ± 0.33	2.01 ± 0.16		
MRHLSTGTMTGLAIQYALNIAFSE [MATN2]	3.08 ± 0.49	3.33 ± 0.25		
SSITEAVPSESEPPALQNNLLSPL [NFE2L1]	4.75 ± 0.12	4.75 ± 0.21		
TNLLEGAVAFMPEDITKGTQSLPT [AUP1]	4.55 ± 0.12	4.47 ± 0.17		
PHDFIEHFLSKMPEAEENKQIIRK [CCND1]	3.96 ± 0.21	4.27 ± 0.22		
MSYHSGSVFSARDRDPNSLLISCA [TNXB]	2.51 ± 0.2	2.44 ± 0.15		
SLKFKSRVPQTWSKRLYGVYDNEK [PLD5]	2.55 ± 0.39	2.71 ± 0.74		
HWFRKGLRLHDNPALKECIQGADT [CRY1]	3.11 ± 0.19	3.45 ± 0.38		
PEGVNKLKISPVTLKEAYVQKLVK [TENT5C]	2.94 ± 0.35	2.93 ± 0.41		
ADSTSFDVQLGDIILTATDGLFDN [PPTC7]	3.58 ± 0.22	3.68 ± 0.26		
GEITQHNVTELLRDVAAWGRARAT [DNAAF3]	3.11 ± 0.35	3.53 ± 0.5		
QQRLQGQLCDVSIRVQGREFRAHR [ZBTB22]	3.34 ± 0.42	3.81 ± 0.5		
EEEPSHVTGREGFPTDAPYPTTLG [ZNF8]	5.17 ± 0.14	5.17 ± 0.14		
QEILELIDREVDLMMRGVKHHNLE [IQUB]	2.67 ± 0.46	2.64 ± 0.5		
QDTLELESPSLTSTPVCSQKVVVT [MYBL2]	4.59 ± 0.18	4.63 ± 0.11		
DDLETMPDDLLTTLDDTCDLFAPL [ATF4]	5.01 ± 0.088	5.08 ± 0.16		
ATWMLEVCEEQKCEEEVFPLAMNY [CCND1]	3.61 ± 0.16	3.77 ± 0.25		
LFFVPCIFLYARPNSTFPIDKSMT [OR4A15]	3.15 ± 0.51	3.43 ± 1.4		

Sequence	protein stability index [1]	protein stability index [2]	protein stability index [3]	protein stability index [4]
ADPVLDLPLPPPPPEPLSQVSMWD [APBB1IP]	3.46 ± 0.68	3.94 ± 0.62		
QEQIEAVLLNSLQQYRQDQRDGSK [CCND2]	4.51 ± 0.086	4.46 ± 0.13		
MIHRTRKQKYFYKGGLVWDENSSD [CLK3]	3.06 ± 0.22	3.06 ± 0.23		
APGVLTNKRKTYTESYIARPDGDC [ZC2HC1A]	4.27 ± 0.12	4.29 ± 0.3		
VVNESTVCLMGHERRQTLNLISLL [TENT5C]	2.18 ± 0.23	2.31 ± 0.12		
PYLRGTIKMMQAVRQAFQDQDDRR [GFOD1]	3.32 ± 0.17	3.56 ± 0.34		
AHFYGVKLEGKVPMHKLFLEMLEA [ESRRA]	2.46 ± 0.51	2.12 ± 0.034		
FLNFNGMKLFLDCLKEFPEKQELH [ZER1]	2.29 ± 0.18	2.42 ± 0.18		
LHSISDSVLFLQEFGALMSNYSLP [TRIM29]	2.41 ± 0.43	2.12 ± 0.26		
TIEDEDTKVRKQEIIKVTEQLIEA [CAMK2A]	5.27 ± 0.28	5.02 ± 0.25		
APAVEVAPAGASYNPSFEDHQTLL [NOP53]	4.84 ± 0.12	5.14 ± 0.25		
RPPTPLFIPAKTGKDVATQILEGE [RSPH3]	4.82 ± 0.15	5.01 ± 0.11		
PQVSAHHRSQESLTSQESEDTYL [TBC1D10A]			5.4 ± 0.18	5.51 ± 0.16
EAINFCRGLGSQASTVTEIVKQQD [ACSBG2]	4.12 ± 0.11	4.11 ± 0.18		
HVKIVKLLLAHKADVNAQSSTGNT [ANKRD17]	2.32 ± 0.26	2.36 ± 0.22		
PGLPPVPGAPGMPPGIPPLMPGVP [ZNF207]	4.41 ± 0.2	4.5 ± 0.24		
IRVLLAFIVLFLLWPFAWLQVAGL [LPCAT4]	2.6 ± 0.69	3.14 ± 0.44		
EILGIEPDREKGFHLDVEDYLSGV [TSN]	3.27 ± 0.22	3.45 ± 0.41		
TYPAHQNRVSAIIFSLATEWVIST [WDFY1]	3.57 ± 0.89	2.92 ± 1.1		
TYGWTANMERIMKAQALRDNSTMG [HSP90AB1]	2.87 ± 0.24	3.31 ± 0.3		
GKAFSQNSGLINHQRIHTGEKPYE [ZNF24]	3.86 ± 0.19	4.33 ± 0.42		
SEFQAALSRKVAKLVHFLLLKYRA [MAGEA6]	2.45 ± 0.56	2.13 ± 0.29		
DCMSRELVSLTSRNPDQRKESLCI [FBXO34]	3.93 ± 0.57	4.11 ± 0.32		

Sequence	protein stability index [1]	protein stability index [2]	protein stability index [3]	protein stability index [4]
ADHGEPIGRGTKVILHLKEDQTEY [HSP90AB1]	4.76 ± 0.2	4.89 ± 0.29		
IVNDELYLNGASVLPHKSIGESVP [GMPPB]	3.67 ± 0.24	3.4 ± 0.29		
KLLLFLSTELQASQILQNKKHKNS [FAM98B]	2.98 ± 0.75	2.5 ± 1.1		
WEHRTRVGRLYAVYDQAVSIFYDL [SMAD6]	2.52 ± 0.66	2.59 ± 0.47		
PRHQGHRVQPVKDTAHDFRAKCRN [TRIM35]	4.57 ± 0.15	4.65 ± 0.24		
MPSSTTQKDSYQPPGNVYWPLRGK [SPAG8]	4.21 ± 0.28	4.22 ± 0.28		
LLRREPAERLTATGILLHPWLRQD [TRIB3]	2.47 ± 0.27	2.45 ± 0.25		
PSAPEALHSLPGVSLSLENRELWK [TBX6]	3.94 ± 0.19	3.96 ± 0.33		
FDSHRLPGDCFLLLVLLLYAPVGF [AUP1]	3.02 ± 0.62	3.15 ± 0.17		
QNNQAKELERLIDKAMKKDGLVGM [FIS1]	4.18 ± 0.19	4.3 ± 0.12		
SVSVWDLAAPSLHVKEQLPCAGLN [TLE6]	2.91 ± 0.2	3.08 ± 0.3		
MKRHSSRDAAGKPQRPRSAPRTSS [FCHO1]	4.82 ± 0.28	4.92 ± 0.34		
KDKENKFLCVLMSDWFNFHGHMCI [CLK3]	3.06 ± 0.31	3.08 ± 0.53		
RFPGRKQPGVHEEPVLKKWPKLKS [C22orf31]	3.72 ± 0.49	3.57 ± 0.15		
AEAKRDAGIREAKAKQEKVSAQYL [FLOT1]	4.88 ± 0.32	5.094 ± 0.024		
KRQAVNKAVANMQGEMDRKCKQVK [ZMYND11]	4.6 ± 0.68	4.71 ± 0.45		
KDREFHELQGDFSVPDVPKSMAWC [VPS39]	3.5 ± 0.33	3.31 ± 0.15		
FSEIRETSAKVNWMPPPSRADSFK [TNXB]	3.58 ± 0.31	3.88 ± 0.37		
NMPKDHPVSCCLGLLLESLVPFIV [DYNC2LI1]	2.53 ± 0.23	2.57 ± 0.5		
TRVSQLGLQVEGLRRRLEELQQEL [LRRC45]	4.36 ± 0.24	4.55 ± 0.46		
RKVTDSISKSLELCNEISLSEIKD [DLC1]	4.136 ± 0.019	4.26 ± 0.11		
EDQYQFSYRAALEYLGSFDHYAT [PTPRD]			2.61 ± 0.49	2.69 ± 0.34
RSGHTQTDYINASFMDGYKQKNAY [PTPN9]	3.52 ± 0.2	3.61 ± 0.18		

Sequence	protein stability index [1]	protein stability index [2]	protein stability index [3]	protein stability index [4]
QPQQGYIPPMAQPGLPPVPGAPGM [ZNF207]	4.36 ± 0.068	4.47 ± 0.28		
PSTLLPTPEEQGELEPLKGNFDWE [FOXJ1]	5.17 ± 0.068	5.16 ± 0.29		
RLCAPLFRNIKQEPFSARVLVLCV [SOAT1]	2.73 ± 0.84	2.85 ± 1.4		
GCYAYRQNPEAIAAAAMYTFLPDN [MYORG]	2.61 ± 0.34	2.46 ± 0.29		
LPDCCHGSELRDFPGRPMGHLSKD [DLC1]	4.44 ± 0.29	4.32 ± 0.27		
LSYNLYDLLRNTHFRGVSLNLTRK [DYRK1B]	2.28 ± 0.36	2.15 ± 0.09		
EIKSMKKRMSELCIDFNKNLNEDD	4.64 ± 0.6			
PILQGQIDALLEFDVHPNELTNGV [SNAP91]	3.42 ± 0.29	3.4 ± 0.45		
KMEEDIKEEEEKDHNEAMKPEEPP [PCMTD1]	5.57 ± 0.15	5.58 ± 0.31		
ERLYVIGGNHFRGTSDYDDVLSCE [KLHL13]	3.28 ± 0.19	3.35 ± 0.18		
VSCPKSEVRAKFKFSLLNAKREET [SPOPL]	3.67 ± 0.3	3.53 ± 0.19		
QRPADVPEPGRAGYPAPRDEGVLR [HAGHL]	4.85 ± 0.32	4.84 ± 0.15		
DRESLCGASTSCLLPVQVVTEHPL [PCDHGC5]	4.16 ± 0.18	4.39 ± 0.27		
PGAFIAGVPVQPVLIRYPNSLDTT [LPCAT4]	2.72 ± 0.19	2.75 ± 0.36		
RALSEYLAVFARCLAGCEGAHEQV [P3H4]	2.62 ± 0.86	2.89 ± 0.91		
YGRSDVVVLCFSIANPNSLNHVKS [RHOBTB1]	3.21 ± 0.43	2.64 ± 0.69		
DKEGPSPKVEYVWRNIILMSLLHL [SCD]	3.11 ± 0.69	3.12 ± 0.4		
ASCLQELFKAHFRGEVLPEEITEE [INTS3]	3.71 ± 0.34	3.95 ± 0.12		
SNITSETGFRTISSLEEIVEKQGD [TMEM192]	5.44 ± 0.19	5.35 ± 0.15		
AGTPGYLSPEVLRKEAYGKPVDIW [CAMK2B]	3.29 ± 0.15	3.31 ± 0.14		
